Where “and” joins values, the source holds several entries; their conditions need not be identical. Identical values can stand only once.
Target: the molecule itself
Assay: PFO-PAGE

B1: eGFP-fused Shaker potassium channel protein (natural protein)
chain: MAAVAGLYGLGEDRQHRKKQQQQQQHQKEQLEQKEEQKKIAERKLQLREQQLQRNSLDGYGSLPKLSSQDEEGGAGHGFGGGPQHFEPIPHDHDFCERVVINVSGLRFETQLRTLNQFPDTLLGDPARRLRYFDPLRNEYFFDRSRPSFDAILYYYQSGGRLRRPVNVPLDVFSEEIKFYELGDQAINKFREDEGFIKEEERPLPDNEKQRKVWLLFEYPESSQAARVVAIISVFVILLSIVIFCLETLPEFKHYKVFNTTTNGTKIEEDEVPDITDPFFLIETLCIIWFTFELTVRFLACPNKLNFCRDVMNVIDIIAIIPYFITLATVVAEEEDTLNLPKAPVSPQDKSSNQAMSLAILRVIRLVRVFRIFKLSRHSKGLQILGRTLKASMRELGLLIFFLFIGVVLFSSAVYFAEAGSENSFFKSIPDAFWWAVVTMTTVGYGDMTPVGVWGKIVGSLCAIAGVLTIALPVPVIVSNFNYFYHRETDQEEMQSQNFNHVTSCPYLPGTLGQHMKKSSLSESSSDMMDLDDGVESTPGLTETHPGRSAVAPFLGAQQQQQQPVASSLSMSIDKQLQHPLQQLTQTQLYQQQQQQQQQQQNGFKQQQQQTQQQLQQQQSHTINASAAAATSGSGSSGLTMRHNNALAVSIETDV
Q: Which “stoichiometry N” value does the source give for B1 here?
A: Its value is 2 and 4.
